In article PMC10113159:

B1: Cy3-40nt ssDNA (ssDNA)
DNA: ATGTGGAACAGTGGATTCGAAAGCTATGGCAGCGACGACT
B2: FAM-40nt ssDNA (ssDNA)
DNA: B1 DNA
B3: FAM-17nt ssDNA (ssDNA)
DNA: AATTGTTATCCGCTCAC
B4: Cy3-40nt ssRNA (ssRNA)
RNA: AGUCGUCGCUGCCAUAGCUUUCGAAUCCACUGUUCCACAU

What was measured:
Settings in all cases: protein: recombinant; tags: untagged; copies: 1;1;1
[1] = target: T1, RPA heterotrimer (RPA1-RPA2-RPA3), WT (Homo sapiens, UniProt P27694;P15927;P35244 1-616;1-270;1-121); assay: fluorescence microscopy, co-partitioning into RPA droplets; equimolar; Droplet assay buffer and temperature not in material; protein stored in diluted Sorensen phosphate buffer (43.4 mM Na2HPO4, 6.6 mM KH2PO4) pH 7.6, 150 mM KCl, 25 uM EDTA, 1 mM DTT
[2] = target: T1, RPA heterotrimer (RPA1-RPA2-RPA3), WT; assay: fluorescence microscopy, co-partitioning into RPA droplets; equimolar; co-assembly, indirect evidence of binding; Droplet assay buffer and temperature not in material; protein stored in diluted Sorensen phosphate buffer (43.4 mM Na2HPO4, 6.6 mM KH2PO4) pH 7.6, 150 mM KCl, 25 uM EDTA, 1 mM DTT
[3] = target: T1, RPA heterotrimer (RPA1-RPA2-RPA3), WT; assay: fluorescence microscopy, co-partitioning into RPA droplets; equimolar; not enriched in droplets; Droplet assay buffer and temperature not in material; protein stored in diluted Sorensen phosphate buffer (43.4 mM Na2HPO4, 6.6 mM KH2PO4) pH 7.6, 150 mM KCl, 25 uM EDTA, 1 mM DTT

T1 sequence (P27694 whole entry, chain 1 of 3): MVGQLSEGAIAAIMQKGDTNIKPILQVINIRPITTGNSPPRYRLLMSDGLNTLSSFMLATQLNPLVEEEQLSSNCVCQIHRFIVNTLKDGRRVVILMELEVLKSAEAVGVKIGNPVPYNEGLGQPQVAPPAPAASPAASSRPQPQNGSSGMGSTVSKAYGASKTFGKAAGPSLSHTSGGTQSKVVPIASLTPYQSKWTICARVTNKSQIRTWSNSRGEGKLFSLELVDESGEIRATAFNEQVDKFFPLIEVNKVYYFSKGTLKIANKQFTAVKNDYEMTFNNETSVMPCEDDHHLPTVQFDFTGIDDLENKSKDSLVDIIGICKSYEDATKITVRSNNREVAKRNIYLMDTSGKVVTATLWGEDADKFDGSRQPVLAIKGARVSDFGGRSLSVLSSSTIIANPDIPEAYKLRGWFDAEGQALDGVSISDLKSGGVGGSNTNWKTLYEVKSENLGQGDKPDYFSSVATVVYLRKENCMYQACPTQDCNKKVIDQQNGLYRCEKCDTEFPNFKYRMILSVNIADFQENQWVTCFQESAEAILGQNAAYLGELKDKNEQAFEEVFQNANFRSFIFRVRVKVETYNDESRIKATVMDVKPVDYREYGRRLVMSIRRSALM
T1 sequence (P15927 whole entry, chain 2 of 3): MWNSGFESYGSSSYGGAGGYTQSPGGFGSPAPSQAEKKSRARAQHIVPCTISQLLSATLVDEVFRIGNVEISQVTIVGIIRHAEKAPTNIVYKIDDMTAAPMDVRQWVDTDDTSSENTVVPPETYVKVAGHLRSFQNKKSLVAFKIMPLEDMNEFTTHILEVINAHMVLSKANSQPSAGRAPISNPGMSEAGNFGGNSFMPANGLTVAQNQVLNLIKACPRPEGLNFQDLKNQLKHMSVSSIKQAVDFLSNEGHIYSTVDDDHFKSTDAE
T1 sequence (P35244 whole entry, chain 3 of 3): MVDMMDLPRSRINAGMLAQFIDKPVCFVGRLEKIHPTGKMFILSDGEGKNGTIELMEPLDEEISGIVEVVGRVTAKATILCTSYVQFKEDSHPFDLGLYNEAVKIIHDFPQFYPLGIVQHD

Binder | binding result [1] | other results
B1 | binds | 
B2 | binds | 
B3 |  | binding result [2]: binds
B4 |  | binding result [3]: no binding
